Test results published in patent publication US6984380B1, “Treatment of diseases involving faulty MHC class I antigen complex presentation” (priority 1991, dated 2006).
Where no end group is shown, it is not given here.

Columns and labels:
[1] = biological target: T1, H-2K^d class I molecule on NOD splenocytes (Mus musculus, UniProt P01902); assay type: cell-based
T1 construct: Female NOD splenocytes were cultured with a K^d allele-specific peptide in an attempt to load the empty peptide groove of this class I molecule; endogenous in cells; host or cells: primary splenocytes (macrophage/monocyte and lymphocyte gates) from female NOD mice and control B10.D2 (R103) mice
T1 sequence (P01902 22-368): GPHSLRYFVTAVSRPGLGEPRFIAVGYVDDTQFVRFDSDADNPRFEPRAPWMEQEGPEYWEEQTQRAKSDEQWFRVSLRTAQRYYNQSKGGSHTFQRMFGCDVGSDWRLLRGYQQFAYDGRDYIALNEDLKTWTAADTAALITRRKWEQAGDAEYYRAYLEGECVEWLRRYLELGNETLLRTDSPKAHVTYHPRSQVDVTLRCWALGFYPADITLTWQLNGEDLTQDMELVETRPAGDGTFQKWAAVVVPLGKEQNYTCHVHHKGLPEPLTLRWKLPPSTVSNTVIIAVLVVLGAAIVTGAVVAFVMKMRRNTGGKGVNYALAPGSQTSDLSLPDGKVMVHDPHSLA
T1 sequence (P01887 21-119 partner): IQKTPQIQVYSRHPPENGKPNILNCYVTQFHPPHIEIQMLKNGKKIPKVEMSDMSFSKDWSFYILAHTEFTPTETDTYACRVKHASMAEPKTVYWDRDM

In the case of TYQRTRALV [K^d-specific peptide], the “mean fluorescence attributable to K^d” value ([1]; control class I-identical B10.D2 (R103) splenocytes, peptide 480 μM, 5 hours at 37° C.) is reported as “no change in mean fluorescence”, the “surface expression of K^d (mean fluorescence, FACS)” value ([1]; female NOD mouse macrophages, peptide 480 μM, 5-hour incubation at 37° C.) is reported as “stabilized the surface expression of K^d” and the “dose dependence of restoration and stabilization of K^d expression” value ([1]; female NOD splenocytes) is reported as “dose dependent”. For the same sequence, the “optimal peptide concentration for restoration and stabilization of K^d expression” value ([1]; female NOD splenocytes) was “greater than 240 μM”, the “susceptibility to CTL lysis after incubation with peptide” value (H-2K^d target cells) was “did restore susceptibility to CTLs” and the “susceptibility to CTL lysis after prior incubation with peptide” value (H-2K^d target cells) was “Neither the susceptibility of control BALB/c targets nor that of NOD male targets to CTL lysis was affected”.
